Data on 38 sequences can be found in the supplement of paper PMC9170038.

Data set [1] relates to MS2 coat protein. Briefly: apparent KD of MS2 coat protein, switch OFF state (with FMN for OFF switches, without FMN for ON switches); designed switch direction (-1 OFF switch, 1 ON switch): 1; higher = weaker reporter binding. Conditions: FMN input: 0 or 200 uM; Eterna round: R93 (includes R88 designs). The procedure, abridged: (§1)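 Designed RNA switches were made by on-chip transcription from Illumina sequencing clusters and then titrated with SNAP-549-labelled MS2 coat protein. Twofold steps ran from 0.7 or 1.5 nM to 3 µM, each lasting 0.8–1.5 h early and 10–20 min late, in 100 mM Tris-HCl pH 7.5, 80 mM KCl, 4 mM MgCl2, without or with constant ligand. Apparent KD is the per-design median of normalised cluster binding-curve fits.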

The test system of data set [2] is MS2 coat protein. In words: apparent KD of MS2 coat protein, switch ON state; designed switch direction (-1 OFF switch, 1 ON switch): 1; higher = weaker reporter binding. The note with it: FMN input: 0 or 200 uM; Eterna round: R93 (includes R88 designs). The procedure, abridged: as §1

For the sequence “AAUAUACAUGAGGAUCACCCAUGUGAAAAUAUGGAAGGAUAUCGUAAAAAAAAAAAAAAACGAGAAGGUCCAAAAA [SS! 1 MT 14]”, the entries for the “apparent KD of MS2 coat protein” value in data set [1] and in data set [2] were 30.2 nM and 18.7 nM, respectively.

As to “CGAAGACAUGAGGAUCACCCAUGUGGGAUUAUGGGAGGAUAUACAAAGACGAGAGUCAGAGUAGAAGGCCUAGGAG [salish99-ss1-126(!)]”, the “apparent KD of MS2 coat protein” value was 47.1 nM in data set [1] and 28.7 nM in data set [2].

Turning to “AAUAAACAUGAGGAUCACCCAUGUCGGUAAAGUCAAGGAUAUGGGACUGGGAUUAAAGUGCCAGAAGGUGAAAAUA [Raxela]”, the entries for the “apparent KD of MS2 coat protein” value in data set [1] and in data set [2] were 351 nM and 122 nM, respectively.

Consider “AGGAAACAUGAGGAUCACCCAUGUCUAAAUAUGGGAGGAUAUGCACAAAAGGAAAUAACUGCAGAAGGCCUAAAAA [62%, Redo, 4]”, for which the “apparent KD of MS2 coat protein” value in data set [1] is 103 nM; in data set [2], 17.3 nM.

For the sequence “CGCGAACAUGAGGAUCACCCAUGUAAAUCGCAUGUAGGAUAUGGGAAACACAUUAAGAUCCCAGAAGGGCGGAAAA [Anquve]”, the “apparent KD of MS2 coat protein” value was found to be 31.2 nM in data set [1] and 41.3 nM in data set [2].

Consider “GAAAAUAAAAGACAGGAUAUCCAAAAGAAAACAUGAGGAUCACCCAUGUAAAGAAAAUAAAAAUGGGAGAAGGGUCAAAUAAAAG [Mat - Same State 2 - JL mod - D52]”, for which the “apparent KD of MS2 coat protein” value was 56.6 nM in data set [1] and 64.8 nM in data set [2].

As to “AAAGAAAAACUAGAGGAUAUCUGAAUGAUAACAUGAGGAUCACCCAUGUGAAGAAAGGAAUAUGAGGAGAAGGCUAGAAGAAAAA [JL Nando mod 19]”, the “apparent KD of MS2 coat protein” value in data set [1] was found to be 44.9 nM; in data set [2], 33.9 nM.

For “GAUAAACAUGAGGAUCACCCAUGUAGAAAUAUGGGAGGAUAUACAAAGACGAUAGUCAAAGUAGAAGGCCUAAAAG [77%, Mat - Mod of Eli - With 2 more U's]”, the entries for the “apparent KD of MS2 coat protein” value in data set [1] and in data set [2] were 85.9 nM and 24.8 nM, respectively.

On to “CGAAAGGAGAGAGAGGAUAUCCAAAGGAAAACAUGAGGAUCACCCAUGUAGAAGGUAGGAGAUUGGGAGAAGGCUCAAGAAAGAG [salish99-ss2-144]”, for which the “apparent KD of MS2 coat protein” value in data set [1] stood at 27.5 nM; in data set [2], 23 nM.

For the sequence “AACAGACAUGAGGAUCACCCAUGUAGGAUUAUGGGAGGAUAUACAAAGACGAGAGUCAGAGUAGAAGGCCUAGGAA [salish99-ss1-147]”, the results for the “apparent KD of MS2 coat protein” value in data set [1] and in data set [2] were 57.9 nM and 16.7 nM, respectively.

For the sequence “AAGAAACAUGAGGAUCACCCAUGUGAGAUAAACACAGGAUAUGCGAAAAUAAACAAAUAAGCAGAAGGGUGAAGAA [Mat - Same State 1 - Tesla mod - 68]”, the “apparent KD of MS2 coat protein” value worked out at 74.8 nM in data set [1] and 32.9 nM in data set [2].

In the case of “GUAAAACAUGAGGAUCACCCAUGUAGAAAUAUGGGAGGAUAUACGAAGACGAAAGUCAAAGUAGAAGGCCUAAAGU [Mat - Same State 1 - Eli mod - D111]”, the “apparent KD of MS2 coat protein” value in data set [1] was 54.9 nM; in data set [2] it was 26.1 nM.

Consider “AAAAUACAUGAGGAUCACCCAUGUGAGAAAAACGCAGGAUAUGCAAAAAAAAAAAAAAAAGCAGAAGGGUGAAAAA [SameState1-I]”, for which the figures for the “apparent KD of MS2 coat protein” value in data set [1] and in data set [2] were 103 nM and 54.8 nM, respectively.

For “GAGCCGCGGGCACAGGAUAUGCUCGGGCAAACAUGAGGAUCACCCAUGUGCGGCCUAAAUACGACGCAGAAGGGUGCUGGUGUGU [Orxeis]”, the “apparent KD of MS2 coat protein” value in data set [1] came out at 147 nM; in data set [2], 44 nM.

Consider “AGAAAUAAACCUCAGGAUAUGGGUAAGAAAACAUGAGGAUCACCCAUGUAAAAGAAAAUAAAAAACCAGAAGGGAGAAAAUAAAG [Reversing G segment in JL's winner (80%) Variant 2]”, for which the “apparent KD of MS2 coat protein” value in data set [1] stood at 41.3 nM; in data set [2], 31.3 nM.

On to “AUAUAUAUAAGGUAGGAUAUCCAAUAAACCACAUGAGGAUCACCCAUGUAAAGAAAGAAAAAAUGGGAGAAGGACCAUAUAUAUA [77%, More Tesla, 6]”, for which the “apparent KD of MS2 coat protein” value came out at 27.5 nM in data set [1] and 15.4 nM in data set [2].

“ACAAGGCUACACUAGGAUAUGGGUGUCUAAACAUGAGGAUCACCCAUGUGAUGGCAAAACAAAGCUCAGAAGGAGUCGUAGCCCA [Anvemais]”: the “apparent KD of MS2 coat protein” value in data set [1] came to 27.4 nM; in data set [2], 14.7 nM.

With “AUAAAACAUGAGGAUCACCCAUGUGAAAACGUGGGAGGAUAUACGUAGACGAAAGUCGACGUAGAAGGCCUAAAAG [Same State 1.4n.1 (Mat - Mod of Eli - )]”, the “apparent KD of MS2 coat protein” value in data set [1] is 197 nM; in data set [2] it was 119 nM.

In the case of “AAAAAACAUGAGGAUCACCCAUGUAAAAAUAUGGAAGGAUAUGGAAACACGAAAGUGAAACCAGAAGGUCUAAAAG [77%, Mat - Mod of Eli, 10]”, the “apparent KD of MS2 coat protein” value turned out to be 21.3 nM in data set [1] and 17.1 nM in data set [2].

For the sequence “GAUAAACAUGAGGAUCACCCAUGUAGAUAUAUGGGAGGAUAUACAUAGACGAUAGUCAUAGUAGAAGGCCUAAUAG [77%, Mat - Mod of Eli - With 6 more U's]”, the “apparent KD of MS2 coat protein” value in data set [1] is 119 nM; in data set [2], 35.6 nM.

Regarding “AAGAAACAUGAGGAUCACCCAUGUAAAAAUAUGGGAGGAUAUACAAGGACGUAAGUCAAGGUAGAAGGCCUAAGAA [Mat - Same State 1 - Meechl mod - D136]”, the entries for the “apparent KD of MS2 coat protein” value in data set [1] and in data set [2] were 82.5 nM and 20.2 nM, respectively.

As for “AAGAAACAUGAGGAUCACCCAUGUGUAAAUAUGGGAGGAUAUACAAGGACGUAAGUCAAGGUAGAAGGCCUAAGAA [Mat - Same State 1 - Meechl mod - D137]”, the entries for the “apparent KD of MS2 coat protein” value in data set [1] and in data set [2] were 319 nM and 29.4 nM, respectively.

As for “AAGAAACAUGAGGAUCACCCAUGUAAAUUCGAGAGAGGAUAUCGUACAUGGAAGAUUCAACGAGAAGGCUCUAGAA [Same State 1.1 (Pariah 3, G boost at 31)]”, the entries for the “apparent KD of MS2 coat protein” value in data set [1] and in data set [2] were 79.6 nM and 21 nM, respectively.

Turning to “CAUCAACAUGAGGAUCACCCAUGUCAUUGAUGUCAAGGAUAUGGGAGACAUAAAAUUCUUCUAGAAGGUGAAAGAU [Mainuson]”, the “apparent KD of MS2 coat protein” value in data set [1] came out at 176 nM; in data set [2] it was 636 nM.

For “UAAAAAAAAAGGCAGGAUAUCCAAAAUAAAACAUGAGGAUCACCCAUGUAAAAAAAAAAAAAAUGGGAGAAGGGCCAAAAAAAAU [Mat - Same State 2 - Mod - 159]”, the “apparent KD of MS2 coat protein” value in data set [1] was 27 nM; in data set [2], 14 nM.

As to “AAACCACAUGAGGAUCACCCAUGUAGAAAUAUGGGAGGAUAUACGAAAACGAAAGUCAAAGUAGAAGGCCUAAAAG [saturn 2]”, the “apparent KD of MS2 coat protein” value in data set [1] was determined as 129 nM; in data set [2], 36.7 nM.

For the sequence “AAAGAAAAACUAGAGGAUAUCCAAGUGGUAACAUGAGGAUCACCCAUGUGAAGAAAGGAGCAUGAGGAGAAGGCUAGAAGAAAAA [JL Nando mod 25]”, the “apparent KD of MS2 coat protein” value in data set [1] is 82.3 nM; in data set [2], 19.2 nM.

Turning to “AACAGACAUGAGGAUCACCCAUGUAGAAUUAUGGGAGGAUAUACAAAGACGAGAGUCAGAGUAGAAGGCCUAGGAU [salish99-ss1-166]”, the figures for the “apparent KD of MS2 coat protein” value in data set [1] and in data set [2] were 63.4 nM and 22.8 nM, respectively.

For the sequence “AGGAAACAUGAGGAUCACCCAUGUAAAAAAUAUGGAGGAUAUGGAAACACGAAAGUGAAACCAGAAGGCUAAAAAA [77%, Mat - Mod of Eli, 24]”, the “apparent KD of MS2 coat protein” value was 26.9 nM in data set [1] and 17 nM in data set [2].

Turning to “AGGAAACAUGAGGAUCACCCAUGUAAAAAUAUGGGAGGAUAUAGAAAGACGAAAGUCAAACUAGAAGGCCUAAAAG [Garnet 5]”, the results for the “apparent KD of MS2 coat protein” value in data set [1] and in data set [2] were 83.3 nM and 16.1 nM, respectively.

As for “GAAGACAUAGUUCAGGAUAUAGGAAUAGUCACAUGAGGAUCACCCAUGUGCAUUUAUAUGCGCGCUUAGAAGGGAGGUAGAUAUA [SameState2 Malc#20]”, the “apparent KD of MS2 coat protein” value came out at 20.8 nM in data set [1] and 23.8 nM in data set [2].

Take “AACUACAUUAUGAAGGAUAUCCACAUCUAGACAUGAGGAUCACCCAUGUAUACUUAGAUCAUACAGGAGAAGGUCAAGGGUGAUU [JR_SS002_Sub1208]”: the “apparent KD of MS2 coat protein” value in data set [1] turned out to be 131 nM; in data set [2], 172 nM.

“AGGAGACAUGAGGAUCACCCAUGUGAGAAGAGGCGAGGAUAUCGAAAGAAAGAAGAGAAACGAGAAGGCGCGAGAA [salish99-SS1-017]”: the entries for the “apparent KD of MS2 coat protein” value in data set [1] and in data set [2] were 30.3 nM and 15 nM, respectively.

As for “GAAAAACAUGAGGAUCACCCAUGUGAGAUAAACACAGGAUAUGCGAAAAGAAACAAAUAAGCAGAAGGGUGAAAAG [Mat - Same State 1 - Tesla mod - 81]”, the entries for the “apparent KD of MS2 coat protein” value in data set [1] and in data set [2] were 282 nM and 44.1 nM, respectively.

As for “AAAAGACAUGAGGAUCACCCAUGUCAAGACAUAGGAGGAUAUGUCGUGAAAAAAGACUUGGCAGAAGGCCUUUGUC [SS1 - 47]”, the “apparent KD of MS2 coat protein” value in data set [1] turned out to be 16.1 nM; in data set [2] it was 14.3 nM.

In the case of “AAGAAACAUGAGGAUCACCCAUGUAAGAUAAACACAGGAUAUGCGAAAAGAAAGAAAGAAGCAGAAGGGUGAAGAA [Mat - Same State 1 - Tesla mod - 39]”, the “apparent KD of MS2 coat protein” value in data set [1] was determined as 41.7 nM; in data set [2] it was 17.4 nM.

As to “UAUCAUUACACGAAGGAUAUCGAUAAUUGAACAUGAGGAUCACCCAUGUGAUAUAUUUUACAGUUCGAGAAGGUCGAGGGUGAAG [JR_SS002_Sub705]”, the entries for the “apparent KD of MS2 coat protein” value in data set [1] and in data set [2] were 32.4 nM and 16.6 nM, respectively.

With “AAAGAAAAACUAGAGGAUAUUUGAGUGGUAACAUGAGGAUCACCCAUGUGAAGAAAGGAGCAUGAGGAGAAGGCUAGAAGAAAAA [JL Nando mod 23]”, the “apparent KD of MS2 coat protein” value in data set [1] worked out at 68.7 nM; in data set [2], 21.5 nM.
